Measurements reported in the supplement of paper PMC9170038.

Test system: K4 kissing-loop RNA reporter
Assay: apparent KD of K4 kissing-loop reporter; higher = weaker reporter binding
Conditions: Eterna round: R107
Experimental: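 RNA-MaP round R107: designed RNA switches with theophylline, tryptophan, arginine or FMN aptamers are transcribed on-chip within common flanks. They are titrated with a labelled K4 kissing-loop RNA reporter in RNA-MaP buffer (100 mM Tris pH 7.5, 80 mM KCl, 4 mM MgCl2), without ligand or with the indicated ligand. Median apparent KD per design.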

[1] = input ligand: theophylline 20 uM
[2] = input ligand: tryptophan 2.4 mM
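Note: bound reporter read as fluorescence of individual clusters on recovered sequencing chips by microscopy, with normalized cluster intensities fitted with a binding model.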

| Sequence | apparent KD of K4 kissing-loop reporter (input ligand: FMN 200 uM) | apparent KD of K4 kissing-loop reporter (input ligand: arginine 13.2 mM) | apparent KD of K4 kissing-loop reporter (input ligand: none) | apparent KD of K4 kissing-loop reporter [1] | apparent KD of K4 kissing-loop reporter [2] |
| --- | --- | --- | --- | --- | --- |
| GGUAUCUAUACAGAUACCAGUCGUACGGCUGCAUUACAGGUUAGUGAUGUUAACCUGUACGACCCUUGGCAGCUGUAUAGUAGUA [#14 K4 Theophylline B Exclusion] | 115 nM | 94 nM | 115 nM | 197 nM | 104 nM |
| GGUCCACGCCAUGCCAGUGAUGUUGGUAAGCGAGGACCGGUACGGCCGCCACUCGUUCAAUACCGUAUCGCCCAUAACCUGGAGA [Oneseror] | 113 nM | 89.1 nM | 104 nM | 96.5 nM | 118 nM |
| GGUGAUGAGCACGAUACCAGCCUCGGAGCCAGUGAUGUUGGCCCAGUUUAGAAUAAGACAGGCCCUUGGCAGCGUGACGAUGGCU [Inorusre] | 885 nM | 980 nM | 1020 nM | 687 nM | 981 nM |
| GUAGCACUUGACAGUGAUGUUGUCAAGGGCAAGGAUAUCACCUCAGUGAGAAGGUGUCCUUGAUAACUGCUACGGGAAUAUCCCA [Omei KL FMN A Exc D v7] | 603 nM | 136 nM | 152 nM | 156 nM | 168 nM |
| GUAGGAUGAGGAGGAGGAUGAAUUACUGAAGGAGCGCAAAGAAAUGCAGGUAGGUCGCGGUAAAGAAGUAUAGUGAUGUUAUAUC [#08 K4 Arginine A Same State] | 588 nM | 416 nM | 463 nM | 700 nM | 598 nM |
| GUAUCGCUAGGAGGAUAUUUCAAUUUGACUCUUUGAGUUAUUACGGAGUGAUGUUCCGAUUUACGGAAAGAAGGCCUAGUGAUAC [FMN B 12] | 140 nM | 170 nM | 202 nM | 172 nM | 179 nM |
| GUCCCGAGUGAUGUUCGGGUCGUUCGGGAAGGAGCGCCCGCAAGGGCAGGUAGGUCGCCCGGAUCUCUCAGGUAACUGAGAGACC [#2 Same State - Arginine A Attempt #28 (HarryS)] | 553 nM | 319 nM | 431 nM | 408 nM | 416 nM |
| GUCUCGAGUGAUGUUCGGGUCGAUUGGGAAGGAGCGCCCGGAAGGGCAGGUAGGUCGCCCGGGCCGCGCGGGAAACCGCGCGUCC [#2 Same State - Arginine A Attempt #8 (HarryS)] | 208 nM | 110 nM | 194 nM | 140 nM | 154 nM |
| GUCUGCUGUAUCGAUACCAGAAGUGGGCAGUGAUGUUGUUCGGGUACAUCGCGUCUCGAGUUCCCUUGGCAGCGAUUGUACGAAU [theeternabot_exclusion_KL_Theo_B_12] | 533 nM | 571 nM | 694 nM | 835 nM | 524 nM |
| GUCUGUGUACUAGGAUAUGGUUGCAGGCAGUCAGGUCGCCUUUUCGGCGGCCAGUGAUGUUGGUGGCCAGAAGGAGUACGUGAUG [Raorin] | 776 nM | 659 nM | 731 nM | 720 nM | 699 nM |
| GUGAUAUCGCAAGGAUAUCCAAUUUCUGCGGAUAAGUGAUGUUUGGCGCCGCCUCAGUUAUGGCAAGGAGAAGGUGCGGCCUAGC [theeternabot_sameState_KL_FMN_B_28] | 473 nM | 286 nM | 428 nM | 366 nM | 383 nM |
| GUGCGGUGGAGGCUACCGCUACUCUGAGAAGGAGCGCAGAUGACUGCAGGUAGGUCGCUUAGAGCUUGCAGUGAUGUUGCAAGUU [Teorzaqu] | 166 nM | 157 nM | 188 nM | 132 nM | 140 nM |
| GUGGUACAGGCGGCCGCCACUAGUGAUGUUAGUGAUAGAAGAUAUAGUAAAUAUCGGCAUUUAGAUAGGACCGGGCCUGGUGGUG [xxfxcmullin] | 353 nM | 245 nM | 305 nM | 309 nM | 267 nM |
| GUGGUUUACGUAGGAUAUCGAUGAUGAGUAAAUGGAGUGAUGUUCCGAGAUUGAAUAUGAGAUGAGCGAGAAGGGCGGUUUAUGC [FMN B Same State; Euporia Solution 2] | 32.8 nM | 36.9 nM | 31.4 nM | 37.3 nM | 29.5 nM |
| GUUAAAUAAAUGGGCAUAGUGAUGUUGUGUCGAGGACCGGUACGGCCGCCACUCGAGCUAGCAUGCCGGUCAUUAUGGGUAGUUU [theeternabot_exclusion_KL_Trp_A_46] | 112 nM | 118 nM | 142 nM | 132 nM | 219 nM |
| GUUACGCAUGGAAGGAGCGCAGGCUCAACAAAUAGCUCAGUGAUGUUGAGCAUAUUAAUUCUGCAGGUAGGUCGCCAUGUGUAAC [Ex Arginine B K4 25] | 531 nM | 491 nM | 551 nM | 536 nM | 508 nM |
| GUUACGCAUGGAAGGAGCGCGAAUUUAAUUAGUGAGUGAUGUUCACAUAAAAUGUAUAAUACGCAGGUAGGUCGCCAUGUGUAAC [whbob_Ex_Arginine_B_2th163] | 81.9 nM | 84 nM | 77.2 nM | 85.7 nM | 81.3 nM |
| GUUGAUCAUGGAAGGAGCGCCCAUUGUCGACACGAGUGAUGUUCGUGUCGUUAAUUAUGAGGGCAGGUAGGUCGCCGUGUGCUUU [Soqugebi] | 144 nM | 103 nM | 130 nM | 115 nM | 128 nM |
| UAAAUAAAAUCCUAGUGAUGUUAGGAUAUGUAGGAUAUCGGGAUACCGAGAAGGACAGAAGGAGGAGUGAUGUUCCUCAAUAAAU [FmnAX 30 #DoubleAptamer #DoubleK4 #OpenEnded] | 72 nM | 72.1 nM | 59.3 nM | 74.5 nM | 59.5 nM |
| UAAGACAUGAAAGGAUAUCCGAUAUGGAGCCUUUAGUGAUGUUAGGAGCUAGCCGUAGACAAGAUCGGAGAAGGUUCAACCCACA [theeternabot_sameState_KL_FMN_B_13] | 787 nM | 506 nM | 646 nM | 705 nM | 640 nM |
| UAAUAUCCGUCGGCCGCCACUCACUAGUGAUGUUAGAGGAGUGAUGUUCCACGAGUGAUGUUCGAGAGGACCGGGACGGACGAUG [7th] | 75.1 nM | 60 nM | 65.3 nM | 56.6 nM | 54.9 nM |
